Source: patent publication US6033903, “Method of expressing and secreting soluble extracellular domains of human gonadotropin hormone receptors” (Applied Research Systems, Ars Holding N.V., dated 2000)

Target: human follicle stimulating hormone (recombinant hFSH) (human, UniProt P01215, ^125 I label on the tracer form (which chain and residue is not stated); unlabelled in the cold competitor, the affinity resin and the cell assay)
Test: 125I-hFSH radioligand binding, summary of Example 2

B1: soluble hFSHR-EC secreted from baculovirus-infected insect cells (gp67 signal peptide fusion, pAcGP67-hFSHR-EC) (receptor)
chain: ADQCHHRICHCSNRVFLCQESKVTEIPSDLPRNAIELRFVLTKLRVIQKGAFSGFGDLEKIEISQNDVLEVIEADVFSNLPKLHEIRIEKANNLLYINPEAFQNLPNLQYLLISNTGIKHLPDVHKIHSLQKVLLDIQDNINIHTIERNSFVGLSFESVILWLNKNGIQEIHNCAFNGTQLDELNLSDNNNLEELPNDVFHGASGPVILDISRTRIHSLPSYGLENLKKLRARSTYNLKKLPTLEKLVALMEASLTYPSHCCAFANWRRQISELHPICNKSILRQEVDYMTQTRGQRSSLAEDNESSYSRGFDMTYTEFDYDLCNEVVDVTCSPKPDAFNPCEDIMGYNILR
binding result: binds
